These results are taken from patent publication US20080261267A1, “Cellulases from Rumen” (priority 2004, published 2008).

Type in all cases: biochemical
Data set [1] in a line: Thermal activity and thermostability. As to conditions: at the pH optima; CMC. As for the experimental part: (§1) FIG. 3 represents Table 3 giving an overview over the biochemical properties of the cellulases according to the invention. Reaction was performed at the optimum pH and temperature for each done using CMC as substrate. […] The values for clones pBKRR.1, 9, 11, 13, 14, 16 and 22 are depicted. For each clone the following data are given: • maximum pH at which the remaining activity after 24 h incubation at the indicate pH is >90% (column “Stable at pH”). […] Activity was measured after 2 h incubation and compared with a control reaction in buffer lacking dimethylsulfoxide, • detergent resistance given by the remaining activity in the corresponding buffer (optimum pH) containing the indicate detergent at a concentration for 0 to 3%. […]
(§2) FIG. 4 a-c represent the results of the determination of pH and temperature optima showing graphically views of the pH-dependence activity and temperature-dependence activity of the polypeptides according to the invention. The pH optima of rumial endoglucanases were measured under conditions described in Example 5: 4% CMC, 0.5 mL of 50 mM buffer at the corresponding pH and 0.1 mg E. coli cell lysates, for 5-30 min, at 40° C. Effect of temperature on endoglucanase activity was measured in 50 mM sodium acetate buffer pH 5.6. […]

Another data set in a line: Cation dependence. The settings on record: 10 to 100 mM. As for the experimental part: (§3) FIG. 3 represents Table 3 giving an overview over the biochemical properties of the cellulases according to the invention. Reaction was performed at the optimum pH and temperature for each done using CMC as substrate. […] The values for clones pBKRR.1, 9, 11, 13, 14, 16 and 22 are depicted. For each clone the following data are given: • maximum pH at which the remaining activity after 24 h incubation at the indicate pH is >90% (column “Stable at pH”). […] Activity was measured after 2 h incubation and compared with a control reaction in buffer lacking dimethylsulfoxide, • detergent resistance given by the remaining activity in the corresponding buffer (optimum pH) containing the indicate detergent at a concentration for 0 to 3%. […] The effect of mono- (Na^+, K^+, NH4^+, and divalent cations (Ca^2+, Mn^2+, Mg^2+, Sr^2+, Fe^2+, Cu^2+, Ni^2+, Co^2+, Zn^2+) was first examined by treating the enzyme with chelating agents (EDTA and EGTA) to remove any endogenous divalent cations, followed by adding cations to the reaction mixture.
[…] Inhibitors such as N-ethylmalemide, iodoacetate and p-chloromercuribenzoate at concentration from 1-5 mM were incubated in the presence of the enzyme for 30 min (30° C.) prior to the addition of the substrate (CMC). The effects of detergents on the endoglucanase activity was analysed by adding of 1-3% (wt/vol) detergent to the enzyme solution. In all cases, the enzyme activity was assayed in triplicate using the standard cellulose assay described above and the residual activity was expressed as percent of the control value (without addition of chemicals).

Data set [2] can be described thus: Detergent resistance (effect of surfactants on activity). As for the experimental part:
The detergent resistance or in other words the effect of surfactants on the activity of the polypeptide of the invention was measured. […] Also, the effect of several commonly used inhibitors on the activity of the polypeptide of the invention was investigated. Sulfhydryl inhibitors such as N-ethylmaleimide, iodoacetate and p-chloromercuribenzoate were all inhibitory. The chelating agents EDTA (ethylenediaminetetraacetic acid) and EGTA (ethyleneglycoltetraacetic acid) a more efficient chelator of Ca^2+ (inhibition >30%) and O-phenanthroline (inhibition >71%) had essentially no effect on the activity of the polypeptides or were slightly stimulatory. In summary, the polypeptides of the invention are well suited to be used for the treatment of cellulosic textiles or fabrics, especially as an ingredient in a detergent composition, because of their high activity at high pH and high stability against metal ions or various components of laundry products such as surfactants, chelating agents or proteinases. In general, they are also suited to be used in compositions containing several commonly used inhibitors.
as §3
To study the effect of cations, inhibitors and surfactants on endoglucanase activity, the conditions were as follows: All cations tested were added as chloride salts and tested at a concentration of 10 mM. […] The effects of detergents on the endoglucanase activity was analysed by adding of 1-3% (wt/vol) detergent to the enzyme solution. In all cases, the enzyme activity was assayed in triplicate using the standard cellulose assay described above and the residual activity was expressed as percent of the control value (without addition of chemicals).

A short description of data set [3]: pH-dependent activity and pH stability. As to conditions: cell lysates; CMC; 40° C. The protocol:
as §1, §2

B1: pBKRR.14: rumen endoglucanase, sequences FIG. 16/24; also capable of hydrolyzing xylan (protein)
chain: MINVLQHHPEVELSVDKTSVSFNRSGGEETFTVTSSTQPHVSADVSWVVVETGKIDKDHHTEVRVLAGANRKEASAGTLTVSCSDKKVSVSVKQEAFVAPSVASTTAVTPQMVFDAMGPGWNMGNHMDAISNGVSGETVWGNPKCTQATMDGVKAAGYKAVRICTTWEGHIGAAPAYALEQKWLDRVAEIVGYAEKAGLVAIVNTHHDESYWQDISKCYNNAANHEKVKDEVFSVWTQIAEKFKDKGEWLVFESFNEIQDGGWGWSDAFRKNPDAQYKVLNEWNQTFVDAVRSTGGQNATRWLGIPGYACNPGFTIAGLVLPKDYTTANRLMVAVHDYDPYDYTLKDPLIRQWGHTADADKRPSGDNEKAVVDVFNNLKAAYLDKGIPVYLGEMGCSRHTAADFPYQKYYMEYFCKAAADRLLPMYLWDNGAKGVGSERHAYIDHGTGQFVDEDARTLVGLMVKAVTTKDASYTLESVYNSAP
modifications: Description of sequence sequence derived from genomic DNA library from rumen ecosystem, particularly amino acid sequence of clones pBKRR 14 and 20-1; RR14=RR20-1;(see Figure 24)
notes: also capable of hydrolyzing xylan
Consider B1, for which, in data set [1], the “temperature of improved activity and thermostability” value turned out to be 70 °C. The “stimulatory effect of Mg^2+” value in the data set “Cation dependence” (chloride salt) was 127%. The “influence of mono- and divalent cations on activity” value in “Cation dependence” (chloride salts, after EDTA and EGTA treatment) is recorded as “not influenced”. Further, the “activity in the presence of SDS (% more active and stable)” value in data set [2] (SDS 1-3%, 2 h incubation, versus control without detergent) is recorded as 161%. Besides, the “activity in the presence of Triton X-100 (% more active and stable)” value in data set [2] (Triton X-100 1-3%, 2 h incubation, versus control without detergent, pH and temperature per clone) turned out to be 134%.

B2: pBKRR.22: rumen endo-beta-1,4-glucanase, sequences FIG. 11/19 (protein)
chain: MLLASFSLFSCGGSDGDDSTPTPSVSLQLVSQSIAEGAQVDAASTTVLTLNYNNPVRVTGNGVTLNGIAVKAKVSGNTSVEIPLTLVEGTVYTLKVAWGAIVAAADGKVVAPEFTLNFTTKGNQQPPIDENSPIAKKMGWGWNLGNHFDTSSGADGVRPQWGYWDNAKPTQVLYNNLRNAGTSTVRIGVTWGNYQNTSNWDIDANYIAEVRQNVEWAEAAGLNVILNMHHDEYWLDIKGAANNSSTNTNIKNRIEKTWKQIAEAFKDKGEFLIFESFNEIQDGGWGWGANRTDGGKQYKTLNEWNQLVVNTIRATGGNNATRWIGIPSYAANPSLALETGFVLPTDAANRLMVSVHFYDPSNFTLSPYVSDDSSEYKSGGYSEWGHTAAKGKADTGSNEDHVVAIFKKLHDKFVAKNIPVYIGEYGCVMHKNTRSNYFRNYYLEYVCRAAHEYGMPLCIWDNNQTGGGNEHHGYFNHTDGQYLNAMESLVKTMIKAATSDDASYTLESVYNKAPK
modifications: Description of sequence sequence derived from genomic DNA library from rumen ecosystem, particularly amino acid sequence of clones pBKRR 22, 6, 8 and 23;(see Figure 19)
For B2, the “activity at alkaline (pH 9.0-10.0) and acidophilic (3.5-4.0) conditions” value in data set [3] is on record as “without variation of enzyme activity”. For the same molecule, the “effect of SDS on activity” value in data set [2] (SDS 1 mM or higher) is “inhibited by SDS at concentrations higher than 1 mM”. The “effect of Triton X-100 on activity” value in data set [2] (Triton X-100 up to 1-3%) is on record as “resistant to Triton X-100 up to 1-3%”.
